Experimental findings from patent US5789163, “Enzyme linked oligonucleotide assays (ELONAS)” (NeXstar Pharmaceuticals, Inc.) are described below.

Data set [1] deals with VEGF (vascular endothelial growth factor) (Homo sapiens, UniProt P15692-4 P15692-4:27-191). Description: ELONA; 95% CI 0.19-0.33 nM, N=6; VEGF titration in sandwich with capture antibody, ligand 400 nM as detector, room temperature; 0.236 nM in Superblock/TBS-Tween variant. To be noted: tags: R&D Systems recombinant human VEGF; chain copies: 2; label: 3'-biotin.
Data set [2] deals with hTSH (human thyroid stimulating hormone) (Homo sapiens, UniProt P01215;P01222 P01215:25-116,P01222:21-132). Description: ELONA; RNA as capture molecule in TEM buffer; signals analogous to commercial ELISA. Particulars: tags: Becton Dickinson, 9 IU/mg, Mr 27,700; label: 5'-biotin (GDP-beta-S, iodoacetyl-LC-biotin). For orientation: An ELISA detects its analyte on a solid surface through an enzyme-linked reagent.

Data set [3] addresses hCG (human chorionic gonadotropin) (Homo sapiens, UniProt P01215;P0DN86 P01215:25-116,P0DN86:21-165). Briefly: ELONA; RNA as capture molecule in TEM buffer; detection down to 200 mIU (340 pM). Particulars: tags: Vitro Diagnostics, 14,000 IU/mg, Mr 42,000; label: 5'-biotin (GDP-beta-S, iodoacetyl-LC-biotin).

For orientation: EC50 means the concentration needed to bring the measured effect to its halfway point.

Chain of VEGF (vascular endothelial growth factor) (P15692 other isoform, or with tags, fused parts or gaps): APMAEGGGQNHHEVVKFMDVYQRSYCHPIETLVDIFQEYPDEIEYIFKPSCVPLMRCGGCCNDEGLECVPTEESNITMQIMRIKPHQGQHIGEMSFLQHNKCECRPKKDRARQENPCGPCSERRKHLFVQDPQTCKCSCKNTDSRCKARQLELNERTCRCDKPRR
Chain of hCG (human chorionic gonadotropin) (P01215 25-116, chain 1 of 2, other chains not shown): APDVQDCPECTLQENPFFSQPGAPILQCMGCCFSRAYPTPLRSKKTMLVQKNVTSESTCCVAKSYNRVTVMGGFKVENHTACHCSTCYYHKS
Chain of hTSH (human thyroid stimulating hormone) (P01215 25-116, chain 1 of 2): as the sequence (P01215 25-116, chain 1 of 2, other chains not shown) above
Chain of hTSH (human thyroid stimulating hormone) (P01222 21-132, chain 2 of 2): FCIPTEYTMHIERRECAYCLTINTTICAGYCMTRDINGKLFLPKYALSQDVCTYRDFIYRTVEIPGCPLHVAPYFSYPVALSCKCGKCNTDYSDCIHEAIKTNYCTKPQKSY

B1: VEGF-NeXamer (ssRNA)
RNA: ACCCUGAUGGUAGACGCCGGG
modifications: 2'-NH2 pyrimidines
Consider B1, for which the EC50 in data set [1] came to 250 pM.

B2: T-15 (ssRNA)
RNA: GGGAGGACGAUGCGGAUGUUGGCAGCAGGGUCCGACGGCGUAACCUUGCCAGCUGCAGACGACUCGCCCGA
modifications: 2'-NH2 on all C and U
Regarding B2, in data set [2], the binding result is on record as “binds”.

B3: H-42 (ssRNA)
RNA: GGGAGGACGAUGCGGACAAGGGCCUGAGUGUGGAGGGCACGUGGAGGGGACUGGCCAGACGACUCGCCCGA
modifications: 2'-NH2 on all C and U
For B3, in data set [3], the binding result is listed as “binds”.
